How the values were obtained:
CXCR4 = CXCR4 (Homo sapiens, UniProt P61073); assay: PathHunter β-Arrestin CXCR4 human chemokine GPCR antagonist assay (gpcrMAX screening and hit-confirmation); type: cell-based; conditions: for % inhibition: hit-confirmation
Experimental: SEQ ID NO: 30949 blocks CXCR4 and cancer cell migration, making it suitable in the treatment of multiple cancers. Whereas SEQ ID NO: 34229 agonizes C3AR1, a key regulator of immune response and inflammation. The target proteins SEQ ID NO: 30949 and SEQ ID NO: 34229 were treated with gpcrMAX, which is a comprehensive panel covering 168 G protein-coupled receptors (GPCRs) from over 60 distinct receptor families. This panel utilizes PathHunter® β-Arrestin technology (Eurofins DiscoverX). PathHunter β-Arrestin GPCR cell lines are engineered to co-express the ProLink™ (PK) tagged GPCR and the Enzyme Acceptor (EA) tagged β-Arrestin. Activation of the GPCR-PK induces β-Arrestin-EA recruitment, forcing complementation of the two β-galactosidase enzyme fragments (EA and PK). The resulting functional enzyme hydrolyzes substrate to generate a chemiluminescent signal.
Cell Handling: PathHunter® cell lines were expanded from freezer stocks according to standard procedures. Cells were seeded in a total volume of 20 μL into white walled, 384-well microplates and incubated at 37° C. for the appropriate time prior to testing. […]
Signal Detection: Assay signal was generated through a single addition of 12.5 or 15 μL (50% v/v) of PathHunter® Detection reagent cocktail, followed by a one-hour incubation at room temperature. Microplates were read following signal generation with a PerkinElmer Envision™ instrument for chemiluminescent signal detection.
Data Analysis: Compound activity was analyzed using CBIS data analysis suite (ChemInnovation, CA). For agonist mode assays, percentage activity was calculated using the following formula: % Activity=100%×(mean RLU of test sample−mean RLU of vehicle control)/(mean MAX control ligand−mean RLU of vehicle control). For antagonist mode assays, percentage inhibition was calculated using the following formula: % Inhibition=100%×(1−(mean RLU of test sample−mean RLU of vehicle control)/(mean RLU of EC80 control−mean RLU of vehicle control)).

NAMALWA cells = assay: Chemotaxis assay (trans-well cell migration); type: cell-based; conditions: NAMALWA human Burkitt lymphoma cells; 24 hours; SDF-1 (CXCL-12)
Experimental: Chemotaxis Assay: NAMALWA cells (human Burkitt lymphoma cell line, ATCC) were cultured in serum-free ATCC formulated RPMI for 24 hr prior to the assay. After starvation, harvest cells and centrifuge at 1,000×g, for 5 minutes to pellet them. Resuspend the cell in a serum-free media. Using Cell Migration/Chemotaxis Assay Kit (96-well, 8 μm) from Abcam, add 150 μL of serum-free media containing desired chemoattractant to the bottom chamber. Then add 50,000 cells and desired inhibitor (or peptides) to each well of the top chamber. Place the plate and incubate at 37° C. in CO2 incubator for 24 hours. After incubation, add 110 μL of Cell Dye+Cell Dissociation Solution mix to each bottom well and incubate at 37° C. in CO2 incubator for an hour. After incubation remove the top chamber and read the plate at Ex/Em=530/590 nm.

Sequence of CXCR4 (P61073 whole entry): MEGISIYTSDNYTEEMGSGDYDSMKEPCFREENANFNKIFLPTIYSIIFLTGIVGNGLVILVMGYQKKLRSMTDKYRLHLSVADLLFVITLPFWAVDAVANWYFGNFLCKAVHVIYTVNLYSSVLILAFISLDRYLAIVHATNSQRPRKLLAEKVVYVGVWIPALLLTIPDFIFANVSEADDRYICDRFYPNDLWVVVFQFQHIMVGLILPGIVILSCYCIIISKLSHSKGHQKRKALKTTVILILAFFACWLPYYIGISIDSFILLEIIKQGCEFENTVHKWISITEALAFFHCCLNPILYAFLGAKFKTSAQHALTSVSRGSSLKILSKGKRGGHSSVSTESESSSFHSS

GPCR ligand mode at CXCR4 (CXCR4; gpcrMAX panel): blocked CXCR4
% inhibition (CXCR4; 0.3 μM): ~ 80%
% inhibition (CXCR4; 1 μM): ~ 80%
Substance: SEQ ID NO: 30949: novel peptide GPCR ligand that blocks CXCR4; sequence only in Sequence Listing (MTAFGLGIPTFLVMQPSGSQPRFPALTQNGVALVRTPLTSVYLRVRICRVLGPRSQPS; listed as Homo sapiens)
chemotactic migration (NAMALWA cells): significantly inhibit the chemotactic migration
